From publication PMC12464775 (2025)
Ends that are not written are not given here. * marks the point of attachment. Biotin = O=C1N[C@H]2[C@H](CS[C@H]2CCCCC(=O)*)N1; azide = [N-]=[N+]=N*

B1: mouse RNF43 (domain or fragment)
chain: GFGHTGRVLAAAVESERSAEQKAVIRVIPLKMDPTGKLNLTLEGVFAGVAEVTPAEGKLMQSHPLYLCNASDDDNLEPGFISIVKLESPRRAPRPCLSLASKARMAGERGANAVLFDITEDRSAAEQLQQPLGLTKPVVLIWGSDAAKLMEFVYKNRKAYVWIELKEPPAGANY
B2: extracellular domain (ECD) of the human RNF43 protein, biotinylated (domain or fragment)
chain: GFGRTGLVLAAAVESERSAEQKAIIRVIPLKMDPTGKLNLTLEGVFAGVAEITPAEGKLMQSHPLYLCNASDDDNLEPGFISIVKLESPRRAPRPCLSLASKARMAGERGASAVLFDITEDRAAAEQLQQPLGLTWPVVLIWGNDAEKLMEFVYKNQKAHVRIELKEPPAWPDY
modifications: biotin (EZ-link-NHS-PEG4-biotin), 1–2 biotin molecules per protein

What was measured:
GUR-1.6.12.16 = test: SPR
GUR-1.6.12.12 = test: SPR
GUR-1.6.12.4 = test: SPR
[1] = molecular target: B2; test: SPR
[2] = molecular target: T1, human RNF43 (in solution) (human); test: SPR; bio-GUR-1.6.12.2 immobilized
T1 chain: B2 chain

[3] = molecular target: B2; test: SPR; RNF43 immobilized
NAz-GUR-1.6.12.2 = test: SPR
GUR-1 = test: SPR
[4] = molecular target: B2; test: SPR
deglycosylated RNF43 = molecular target: T2, deglycosylated RNF43 (human, UniProt Q68DV7 24-197, biotin; deglycosylated with Deglycosylation Mix II (glycosylation sites N62 and N92)); test: SPR; deglycosylated RNF43
T2 chain: B2 chain

mouse RNF43 = molecular target: B1; test: SPR

B1
Kd (GUR-1.6.12.16): 1.6 nM | Kd (GUR-1.6.12.12): 5.1 nM | Kd (GUR-1.6.12.4): 4.5 nM

azide-EQCTSTQDLCHDYSHVCCWPLDCRWAVKYQWFWDCIG (designed binder, also: hexamer via six-armed PEG linker (azide–alkyne cycloaddition)) [hex-GUR-1.6.12.2]
Kd [1]: 0.0002 nM

Biotin-EQCTSTQDLCHDYSHVCCWPLDCRWAVKYQWFWDCIG (designed binder, cysteine pairing not given here) [N-terminal biotinylated GUR-1.6.12.2]
Kd [2]: 46.9 nM | Kd [3]: 0.5 nM

B2
Kd (NAz-GUR-1.6.12.2): 2.9 nM | Kd (GUR-1): 1220 nM | Kd (GUR-1.6.12.16): 4 nM | Kd (GUR-1.6.12.12): 7.9 nM | Kd (GUR-1.6.12.4): 3.9 nM

azide-EQCTSTQDLCHDYSHVCCWPLDCRWAVKYQWFWDCIG (designed binder, also: dimer via bivalent PEG5 linker (azide–alkyne cycloaddition)) [di-GUR-1.6.12.2]
Kd [1]: 0.06 nM

QCVKKDELCIPYYLDCCWPLDCRWAVKYQWFWDCIG (designed binder) [GUR-1.6.12]
Kd [4]: 56 nM

QCVKKDELCIPYYLDCCEPLECRWAVKYQWFWDCIG (designed binder) [GUR-1.6]
Kd [4]: 92 nM

EQCTSTQDLCHDYSHVCCWPLDCRWAVKYQWFWDCIG (designed binder) [GUR-1.6.12.2]
Kd (deglycosylated RNF43): 2.8 nM | Kd [4]: 1.1 nM | Kd (mouse RNF43): 2.1 nM

HDYSHVCCWPLDCRWAVKYQWFWDCIG [truncated peptide GUR-1.6.12.2 H11-G37]
Kd [1]: 4.6 nM
